Measurements reported in publication doi:10.1101/2023.03.13.532365.

Molecular target: *DsCDTCM, exported bifunctional cyclohexadienyl dehydratase-chorismate mutase fusion enzyme of Duganella sacchari (Duganella sacchari)
Experiment: crystal structure

stoichiometry N: 2
Substance: *DsCDTCM, exported bifunctional cyclohexadienyl dehydratase-chorismate mutase fusion enzyme of Duganella sacchari
